Measurements: PMC3726683, “Autophagy Activation Clears ELAVL1/HuR-Mediated Accumulation of SQSTM1/p62 during Proteasomal Inhibition in Human Retinal Pigment Epithelial Cells”

Legend:
ELAVL1/HuR (rHuR) [1] = molecular target: T1, ELAVL1/HuR (rHuR) (human, UniProt Q15717 1-326); test: AlphaScreen saturation binding; RNA titrated against 1 nM HuR; R2 0.91; Methods print 0.207±0.024 without unit; 25 mM HEPES pH 7.4, 100 mM NaCl, 0.1% BSA, room temperature, 30 min then 90 min with donor beads; conditions: protein: recombinant; tags: C-terminal Myc-His (vector section) or MYC/DDK (assay section, TP301562); label: biotin (BITEG); single strand
ELAVL1/HuR (rHuR) [2] = molecular target: T1, ELAVL1/HuR (rHuR); test: AlphaScreen saturation binding; RNA titrated against 1 nM HuR; R2 0.97; Methods print 0.087±0.021 without unit; 25 mM HEPES pH 7.4, 100 mM NaCl, 0.1% BSA, room temperature, 30 min then 90 min with donor beads; conditions: protein: recombinant; tags: C-terminal Myc-His (vector section) or MYC/DDK (assay section, TP301562); label: biotin (BITEG); single strand

T1 sequence (Q15717 whole entry): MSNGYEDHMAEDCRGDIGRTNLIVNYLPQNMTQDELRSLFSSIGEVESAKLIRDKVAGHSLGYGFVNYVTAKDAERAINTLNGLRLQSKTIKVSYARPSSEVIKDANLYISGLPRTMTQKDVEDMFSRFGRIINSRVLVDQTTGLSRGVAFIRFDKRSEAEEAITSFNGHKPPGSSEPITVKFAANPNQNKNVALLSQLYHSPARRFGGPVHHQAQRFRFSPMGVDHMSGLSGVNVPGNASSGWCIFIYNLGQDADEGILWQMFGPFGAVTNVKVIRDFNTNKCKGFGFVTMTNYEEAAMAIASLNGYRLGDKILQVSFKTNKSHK

## GUUUUAAAUGACUCAUAGGUCCCUGACAUUUAGUUGAUU (ssRNA) [SQSTM1/p62 ARE probe]
ELAVL1/HuR (rHuR) [1]
  Kd: 30.9 ± 13.2 nM

## AUUAUUUAUUAUUUAUUUAUUAUUUA (ssRNA) [TNFalpha ARE probe]
ELAVL1/HuR (rHuR) [2]
  Kd: 3.83 ± 0.69 nM
